For data set [1], the target named is NF-IL6 (C/EBPbeta) tryptic core domain bZIP (TCD) (UniProt P17676). Put plainly: FP. Conditions: Kobs, direct titration, normal phosphate backbone.
For data set [2], the target named is T1, c-Rel homodimer (UniProt Q04864 Q04864:2-619).
T1 sequence: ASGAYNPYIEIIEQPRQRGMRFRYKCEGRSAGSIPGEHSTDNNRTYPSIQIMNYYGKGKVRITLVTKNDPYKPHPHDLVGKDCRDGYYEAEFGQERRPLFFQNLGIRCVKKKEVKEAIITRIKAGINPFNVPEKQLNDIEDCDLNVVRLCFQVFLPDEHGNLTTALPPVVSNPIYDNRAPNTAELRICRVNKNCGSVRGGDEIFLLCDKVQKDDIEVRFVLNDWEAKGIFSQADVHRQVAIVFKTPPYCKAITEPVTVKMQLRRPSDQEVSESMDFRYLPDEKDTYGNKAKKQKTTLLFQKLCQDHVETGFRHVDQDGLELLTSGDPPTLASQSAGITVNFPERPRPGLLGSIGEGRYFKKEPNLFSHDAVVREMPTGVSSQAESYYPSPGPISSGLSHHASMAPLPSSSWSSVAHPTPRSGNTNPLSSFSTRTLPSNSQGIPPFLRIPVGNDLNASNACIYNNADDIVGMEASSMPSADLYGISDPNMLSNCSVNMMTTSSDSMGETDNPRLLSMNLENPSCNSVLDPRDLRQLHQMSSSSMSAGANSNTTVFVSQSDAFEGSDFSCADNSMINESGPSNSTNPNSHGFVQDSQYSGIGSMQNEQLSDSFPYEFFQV
Put plainly: EMSA; single-copy site behaves similarly to CK-1. The following applies: chain copies: 2 (stated). (In general: In EMSA bound probe runs differently from free probe, usually more slowly.)

Data set [3] has as its target T2, NF-kB p50 homodimer (UniProt P19838 P19838:1-433). Put plainly: EMSA; labeled probe in competition assays. The following applies: chain copies: 2 (stated); label: 32P.
Data set [4] addresses T2, NF-kB p50 homodimer. Put plainly: EMSA; competition with 32P-IgkB; specificity lost on full thiolation. Conditions: chain copies: 2 (stated). On the procedure:
In standard competitive binding assays, ³²P-IgκB promoter element ODN duplex was incubated with recombinant p50 or p65 and competitor oligonucleotide (A) phosphodiester CK-1; (B) phosphorothioate CK-1. The reactions were then run on a nondenaturing polyacrylamide gel, and the amount of radioactivity bound to protein and shifted in the gel was quantitated by direct counting. […] It is the recognition that [S]-ODNs with large numbers of phosphorothioate linkages are “sticky” and tend to bind with poor specificity to proteins that led to one of the embodiments of the present invention. Using the method disclosed herein it was determined that if the number of phosphorothioate linkages is reduced to only 2-4, specificity can be restored, but binding is not enhanced.

Data set [5] addresses T1, c-Rel homodimer. Put plainly: EMSA; binds and competes. The following applies: chain copies: 2 (stated).
The target in data set [6] is T2, NF-kB p50 homodimer. Put plainly: EMSA; full monothiolation loses specificity. The following applies: chain copies: 2 (stated).

Experimental findings from patent US20050214772, “Thio modified aptamer synthetic methods and compositions” (Board Of Regents, The University Of Texas System, published 2005) are described below.

As usually defined, the Kd is the free concentration of one partner at which half of the binding sites on the other are occupied at equilibrium, for simple one-to-one binding.

T2 sequence (P19838 1-433, one chain of several): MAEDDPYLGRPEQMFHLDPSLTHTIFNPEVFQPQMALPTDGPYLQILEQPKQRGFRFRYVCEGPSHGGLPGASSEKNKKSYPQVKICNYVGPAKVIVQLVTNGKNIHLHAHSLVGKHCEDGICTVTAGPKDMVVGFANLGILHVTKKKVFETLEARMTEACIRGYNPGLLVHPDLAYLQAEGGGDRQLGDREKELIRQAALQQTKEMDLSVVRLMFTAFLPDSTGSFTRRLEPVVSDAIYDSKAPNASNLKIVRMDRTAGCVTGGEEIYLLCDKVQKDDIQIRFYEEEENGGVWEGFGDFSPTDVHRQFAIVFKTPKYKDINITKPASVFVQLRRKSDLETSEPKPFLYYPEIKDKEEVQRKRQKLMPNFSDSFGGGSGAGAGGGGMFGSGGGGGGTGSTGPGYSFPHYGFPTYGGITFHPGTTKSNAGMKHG
Chain of NF-IL6 (C/EBPbeta) tryptic core domain bZIP (TCD) (P17676 266-345): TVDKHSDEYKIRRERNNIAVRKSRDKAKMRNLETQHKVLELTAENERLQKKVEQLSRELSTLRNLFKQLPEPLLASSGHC

Take “TGCAGATTGCGCAATCTGCA (double strand) [C/EBPbeta palindromic 20-mer]”: in data set [1], the Kd was 0.01 µM.

B1: CK-14 phosphodiester duplex (dsDNA)
DNA 1: CCAGGAGATTCCAC
DNA 2: GTGGAATCTCCTGG
For B1, in the data set with c-Rel homodimer [2], the binding result is “binds”.

B2: IgkB promoter element 22-mer (dsDNA)
DNA 1: AGTTGAGGGGACTTTCCCAGGC
DNA 2: GCCTGGGAAAGTCCCCTCAACT
B2: in the data set with NF-kB p50 homodimer [3], the binding result is given as “binds”.

B3: CK-1 phosphorothioate duplex (dsDNA)
DNA 1: CCAGGAGATTCCACCCAGGAGATTCCACCCAGGAGATTCCAC
DNA 2: GTGGAATCTCCTGGGTGGAATCTCCTGGGTGGAATCTCCTGG
modifications: PS all linkages
B3: the binding result with NF-kB p50 homodimer [4] is recorded as “binds”.

B4: CK-1 42-mer phosphodiester duplex (dsDNA)
DNA 1: CCAGGAGATTCCACCCAGGAGATTCCACCCAGGAGATTCCAC
DNA 2: GTGGAATCTCCTGGGTGGAATCTCCTGGGTGGAATCTCCTGG
As for B4, the binding result in the data set with c-Rel homodimer [5] is on record as “binds”.

B5: CK-14 fully monothiolated duplex (dsDNA)
DNA 1: CCAGGAGATTCCAC
DNA 2: GTGGAATCTCCTGG
modifications: PS all linkages
Regarding B5, in the data set with NF-kB p50 homodimer [6], the binding result is on record as “binds”.
